Consider 1 substance from publication PMC11601465.

Experiment [1] concerns the target Nyl50. Put plainly: SEC.
For experiment [2], the target named is Nyl50. Put plainly: AUC.
Experiment [3] has as its target Nyl50. In words: AUC. This is another data set of the same source.

As to Nyl50 (enzyme), the stoichiometry N with Nyl50 [1] is 2; with Nyl50 [2], 4; in the experiment with Nyl50 [3], 2.

As usually defined, the stoichiometry N is a count of units in the complex or per binding partner.
